The values below are quoted from earlier work in article PMC2715106.

One may read the Kd as the constant that tells how readily two partners part at equilibrium.

The target of series [1] is core RNA polymerase (Escherichia coli) (UniProt P0A7Z4). In words: SEC.
The target is the same in series [2]. Nature of the series: in vitro transcription.

sigma32, sequence (P0AGB3 whole entry): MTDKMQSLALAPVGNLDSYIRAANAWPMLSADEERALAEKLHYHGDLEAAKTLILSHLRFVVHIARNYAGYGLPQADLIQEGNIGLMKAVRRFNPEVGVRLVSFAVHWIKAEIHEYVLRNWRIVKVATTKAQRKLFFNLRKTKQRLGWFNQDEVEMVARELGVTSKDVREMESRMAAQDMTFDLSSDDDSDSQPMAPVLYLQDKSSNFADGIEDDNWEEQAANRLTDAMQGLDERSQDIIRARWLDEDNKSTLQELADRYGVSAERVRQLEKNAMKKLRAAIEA

Take sigma32 (from UniProt P0AGB3): the Kd in series [1] is 1.24 nM; in series [2] it was 1 nM.
